Measurements taken from IntAct's records for PubMed 18583960.

B1: Serine/threonine-protein kinase TBK1 (Mus musculus), Q9WUN2 (parent)
chain: MQSTSNHLWLLSDILGQGATANVFRGRHKKTGDLYAVKVFNNISFLRPVDVQMREFEVLKKLNHKNIVKLFAIEEETTTRHKVLIMEFCPCGSLYTVLEEPSNAYGLPESEFLIVLRDVVGGMNHLRENGIVHRDIKPGNIMRVIGEDGQSVYKLTDFGAARELEDDEQFVSLYGTEEYLHPDMYERAVLRKDHQKKYGATVDLWSVGVTFYHAATGSLPFRPFEGPRRNKEVMYKIITGKPSGAISGVQKAENGPIDWSGDMPLSCSLSQGLQALLTPVLANILEADQEKCWGFDQFFAETSDVLHRMVIHVFSLQHMTAHKIYIHSYNTAAVFHELVYKQTKIVSSNQELIYEGRRLVLELGRLAQHFPKTTEENPIFVTSREQLNTVGLRYEKISLPKIHPRYDLDGDASMAKAVTGVVCYACRTASTLLLYQELMRKGVRWLVELVKDDYNETVHKKTEVVITLDFCIRNIEKTVKVYEKLMKVNLEAAELGEISDIHTKLLRLSSSQGTIESSLQDISSRLSPGGLLADTWAHQEGTHPRDRNVEKLQVLLNCITEIYYQFKKDKAERRLAYNEEQIHKFDKQKLYYHATKAMSHFSEECVRKYEAFKDKSEEWMRKMLHLRKQLLSLTNQCFDIEEEVSKYQDYTNELQETLPQKMLAASGGVKHAMAPIYPSSNTLVEMTLGMKKLKEEMEGVVKELAENNHILERFGSLTMDGGLRNVDCL
partner: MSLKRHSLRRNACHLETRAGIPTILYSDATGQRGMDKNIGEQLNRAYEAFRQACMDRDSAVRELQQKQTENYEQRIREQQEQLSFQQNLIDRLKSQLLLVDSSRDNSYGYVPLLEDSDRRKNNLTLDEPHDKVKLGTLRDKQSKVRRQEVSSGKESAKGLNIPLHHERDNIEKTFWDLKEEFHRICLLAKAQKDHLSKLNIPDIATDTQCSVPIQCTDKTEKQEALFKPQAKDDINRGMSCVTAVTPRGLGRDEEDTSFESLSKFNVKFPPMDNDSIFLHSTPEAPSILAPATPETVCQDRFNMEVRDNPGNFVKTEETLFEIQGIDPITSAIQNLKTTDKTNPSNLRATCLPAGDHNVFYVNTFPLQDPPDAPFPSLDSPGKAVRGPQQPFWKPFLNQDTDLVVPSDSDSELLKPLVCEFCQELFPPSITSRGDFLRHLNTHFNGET

Variants of: B1
Conditions: with tank_mouse Tank

Row | Variant | effect of a mutation on the interaction
1 | S172A | decreasing interaction
